# Assay results published in US20050187156A1 (Stanford University, published 2005).
# T1: GST-εRACK (human εRACK expressed as a GST fusion protein) (human, UniProt P35606 1-906)
# T1 construct: 10 ng was immobilized on Glutathione-Sepharose 4B beads; also called immobilized GST-εRACK; not shown: glutathione S-transferase (GST) tag of baculovirus vector PacG3X (BD Biosciences)
# T1 sequence (looked up): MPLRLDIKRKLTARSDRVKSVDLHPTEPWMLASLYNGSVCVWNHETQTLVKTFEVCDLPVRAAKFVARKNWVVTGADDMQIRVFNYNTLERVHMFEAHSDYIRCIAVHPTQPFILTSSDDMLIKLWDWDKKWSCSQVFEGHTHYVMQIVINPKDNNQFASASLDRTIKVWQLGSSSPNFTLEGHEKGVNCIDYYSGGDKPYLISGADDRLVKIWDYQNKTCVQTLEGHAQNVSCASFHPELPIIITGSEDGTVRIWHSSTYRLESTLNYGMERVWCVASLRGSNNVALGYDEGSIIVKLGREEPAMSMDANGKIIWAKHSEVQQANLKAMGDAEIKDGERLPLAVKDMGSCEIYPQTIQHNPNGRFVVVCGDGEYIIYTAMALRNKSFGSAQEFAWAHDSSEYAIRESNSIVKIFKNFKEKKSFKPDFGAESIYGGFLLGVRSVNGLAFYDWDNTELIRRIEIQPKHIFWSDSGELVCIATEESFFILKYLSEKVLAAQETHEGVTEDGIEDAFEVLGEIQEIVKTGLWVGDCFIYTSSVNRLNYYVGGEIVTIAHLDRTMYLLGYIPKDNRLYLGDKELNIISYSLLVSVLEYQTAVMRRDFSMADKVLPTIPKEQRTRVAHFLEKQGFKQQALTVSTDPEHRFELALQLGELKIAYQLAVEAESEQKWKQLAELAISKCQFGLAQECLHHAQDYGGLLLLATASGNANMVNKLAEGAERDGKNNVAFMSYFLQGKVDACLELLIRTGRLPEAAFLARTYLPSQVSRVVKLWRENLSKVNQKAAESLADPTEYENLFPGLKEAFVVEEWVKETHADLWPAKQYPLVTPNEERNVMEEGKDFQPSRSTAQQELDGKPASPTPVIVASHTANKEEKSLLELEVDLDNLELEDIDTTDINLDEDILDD
# B1: D(86)A εPKC mutant (enzyme, human, UniProt Q02156 1-737, looked up)
# chain: MVVFNGLLKIKICEAVSLKPTAWSLRHAVGPRPATFLLDPYIALNVDDSRIGQTATKQKTNSPAWHDEFVTDVCNGRKIELAVFHAAPIGYDDFVANCTIQFEELLQNGSRHFEDWIDLEPEGRVYVIIDLSGSSGEAPKDNEERVFRERMRPRKRQGAVRRRVHQVNGHKFMATYLRQPTYCSHCRDFIWGVIGKQGYQCQVCTCVVHKRCHELIITKCAGLKKQETPDQVGSQRFSVNMPHKFGIHNYKVPTFCDHCGSLLWGLLRQGLQCKVCKMNVHRRCETNVAPNCGVDARGIAKVLADLGVTPDKITNSGQRRKKLIAGAESPQPASGGSPSEEDRSKSAPTSPCDQEIKELENNIRKALSFDNRGEEHRAASSPDGQLMSPGENGEVRQGQAKRLGLDEFNFIKVLGKGSFGKVMLAELKGKDEVYAVKVLKKDVILQDDDVDCTMTEKRILALARKHPYLTQLYCCFQTKDRLFFVMEYVNGGDLMFQIQRSRKFDEPRSRFYAAEVTSALMFLHQHGVIYRDLKLDNILLDAEGHCKLADFGMCKEGILNGVTTTTFCGTPDYIAPEILQELEYGPSVDWWALGVLMYEMMAGQPPFEADNEDDLFESILHDDVLYPVWLSKEAVSILKAFMTKNPHKRLGCVASQNGEDAIKQHPFFKEIDWVLLEQKKIKPPFKPRIKTKRDVNNFDQDFTREEPVLTLVDEAIVKQINQEEFKGFSYFGEDLMP
# notes: Used as the soluble fraction of a Hi5 insect cell lysate containing 100 ng εPKC protein; also called D(86)A ΨεRACK mutant; A mutant
# Target: T1, GST-εRACK (human εRACK expressed as a …)
# Assay: pull-down of insect cell-expressed εPKC on GST-εRACK immobilized on glutathione-Sepharose beads, no phospholipid activators, Western blot with anti-εPKC V5
# Experimental: RACKs bind active PKC [Mochly-Rosen, D. & Gordon, A. S., FASEB J. 12:35-42 (1998); Mochly-Rosen, D. et al., Molec. Biol. Cell. (formerly Cell Regulation) 1:693-706 (1990).
# Insect cells expressing either εPKC or GST-εRACK were lysed as described in Example 4. GST-εRACK, 10 ng was immobilized on Glutathion-Sepharose 4B beads (Amersham-Pharmacia), and washed thoroughly with wash buffer (20 mM Tris-HCl pH 7.5, 2 mM EDTA, 100 mM NaCl, 12 mM pME, and 0.1% TritonX-100). Immobilized GST-εRACK was then incubated with the soluble fraction of insect cell lysates containing 100 ng Wt, D(86)A, or D(86)N εPKC protein, in the presence or absence of phospholipid activators (PL) (phosphatidylserine 12 μg/reaction and, Sn-1,2 dioleoylglycerol 400 ng/reaction) for 1 hour at 4° C. Upon thorough washing with wash buffer, bound proteins were eluted in SDS-PAGE sample buffer and proteins separated on 8% SDS-PAGE gels. The amount of εPKC interacting with εRACK was determined by Western blot probing for εPKC with anti εPKC-V5 antibodies. Blots were then re-probed with ant-GST (Santa Cruz) to verify that the same amount of GST-εRACK was present in each binding assay. All other methods for this Example were performed as described, for example, in Example 4.
binder,measurement,value
B1,fold binding relative to D(86)N or Wt εPKC (absence of PL activators),≥ 2 fold
